Laboratory results as given in patent publication US5200320A, “Method for identifying useful polypeptide vaccines” (National Jewish Center for Immunology and Respiratory …, priority 1987, dated 1993).
Ends that are not written are not given here.

Molecular target: T1, IA^d (Mus musculus, UniProt P01921+P04228)
T1 sequence (P04228 24-256): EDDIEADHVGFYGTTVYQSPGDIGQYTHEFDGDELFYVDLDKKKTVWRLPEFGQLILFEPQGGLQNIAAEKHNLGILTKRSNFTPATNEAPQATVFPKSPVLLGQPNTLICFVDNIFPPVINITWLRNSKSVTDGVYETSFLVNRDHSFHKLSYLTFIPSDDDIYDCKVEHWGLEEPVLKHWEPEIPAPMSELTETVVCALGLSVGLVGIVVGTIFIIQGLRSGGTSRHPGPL
T1 sequence (P01921 28-265): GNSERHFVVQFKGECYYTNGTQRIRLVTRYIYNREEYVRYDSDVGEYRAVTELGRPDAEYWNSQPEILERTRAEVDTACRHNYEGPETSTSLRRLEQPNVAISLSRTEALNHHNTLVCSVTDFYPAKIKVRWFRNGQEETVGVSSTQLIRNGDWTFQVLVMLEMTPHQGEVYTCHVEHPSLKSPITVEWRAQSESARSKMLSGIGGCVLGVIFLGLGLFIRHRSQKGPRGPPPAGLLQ
Test: Inhibition of binding of 125I-radiolabelled Ova 323-339 to purified IA^d (gel filtration competition assay)
Conditions: Table 7, good binders; concentration of the indicated polypeptide
From the text: The following examples will illustrate the method of the present invention. First, a critical binding segment of a first polypeptide that binds to a first type of MHC, was ascertained. […] This was accomplished by the method described in Sette, et al, Nature, Vol. […] No. 6129, pp. 395-399, Jul. 30, 1987, the entirety of which is incorporated herein by reference. […] For convenience, Table I of that paper illustrating the foregoing procedure, is attached as Table 2.
The effect which the substitutions indicated by an "X" in Table III, had on the binding strength of the critical binding segment listed at the top of attached Table 4, was quantitatively calculated, and a numerical designation assigned to the substituting amino acid based upon the degree of that effect. The foregoing assigned numerical designations for each "X" position indicated in Table 3, is listed at corresponding positions in Table 4. The quantitative evaluations of the binding strength were made using a competition assay as described in Sette, et al, supra, and the numerals assigned according to the decrease in the binding activity as follows:
The value of "binding" listed in Tables 6 and 7, is in micromolar concentration of the indicated polypeptide. The assay used was the same as that in Sette et al, supra, for quatitative estimation of Ia peptide interaction.
In particular, as pointed out in Sette et al., supra, T-cell recognition is much less permissive than MHC recognition. […] However, as one would expect, when the binding strength of a polypeptide to an MHC types of an individual animal is poor, little or no immunogenic response would result. However, if a polypeptide is a good binder, as ascertained by the above method, then immunogenicity would be expected to be a possibility. […] Binding to a class II MHC type IA^d and IE^d (d strain of mouse) was evaluated using the same assay technique as used to evaluate the binding for the polypeptides in Tables 6 and 7 above.
AHRVQLGPRSLQVLLIP [JF 39] showed an IC50 of 25 µM. With APYTSTLLAPELSETP [HSVD 245-260] the “BINDING (M)” value was 22/2. Substance FISEAIIHVLHSR [Myo 106-118] has an IC50 of 20 µM. For HNTNGVTAACSHE [Ha 130-142], the IC50 was 9 µM. With SAESLKISQAV [Ova Site II] the IC50 was 5 µM.

Molecular target: T1, IA^d
Test: not given
Conditions: amount of unlabelled Ova 323-339 divided by amount of truncated peptide needed to inhibit binding of 125I Ova 323-339 to IA^d by 50%; averages of 2-4 experiments; cited from earlier work
In the case of “Ova peptide 323-331: C-terminal truncation of Ova 323-339, ending in H (KISQAVHAA; UniProt P01012 323-331, looked up, fragment)”, the “Relative I-A^d binding capacity” value is given as under 0.005. For “Ova peptide 323-332: C-terminal truncation of Ova 323-339, ending in A (KISQAVHAAH; UniProt P01012 323-332, looked up, fragment)”, the “Relative I-A^d binding capacity” value is listed as 0.2. In the case of “Ova peptide 323-333: C-terminal truncation of Ova 323-339, ending in E (KISQAVHAAHA; UniProt P01012 323-333, looked up, fragment)”, the “Relative I-A^d binding capacity” value is given as 0.6. In the case of “Ova peptide 323-335: C-terminal truncation of Ova 323-339, ending in N (KISQAVHAAHAEI; UniProt P01012 323-335, looked up, fragment)”, the “Relative I-A^d binding capacity” value is listed as 1.0. For “Ova peptide 323-336: C-terminal truncation of Ova 323-339, ending in E (KISQAVHAAHAEIN; UniProt P01012 323-336, looked up, fragment)”, the “Relative I-A^d binding capacity” value is given as 1.1. In the case of “Ova peptide 325-339: N-terminal truncation of Ova 323-339, starting with Q (SQAVHAAHAEINEAG; UniProt P01012 325-339, looked up, fragment)”, the “Relative I-A^d binding capacity” value is given as 1.1. In the case of “Ova peptide 326-339: N-terminal truncation of Ova 323-339, starting with A (QAVHAAHAEINEAG; UniProt P01012 326-339, looked up, fragment)”, the “Relative I-A^d binding capacity” value is listed as 0.5. In the case of “Ova peptide 327-339: N-terminal truncation of Ova 323-339, starting with V (AVHAAHAEINEAG; UniProt P01012 327-339, looked up, fragment)”, the “Relative I-A^d binding capacity” value is given as 0.3. For “Ova peptide 328-339: N-terminal truncation of Ova 323-339, starting with H (VHAAHAEINEAG; UniProt P01012 328-339, looked up, fragment)”, the “Relative I-A^d binding capacity” value is listed as 0.014. In the case of “Ova peptide 329-339: N-terminal truncation of Ova 323-339, starting with A (HAAHAEINEAG; UniProt P01012 329-339, looked up, fragment)”, the “Relative I-A^d binding capacity” value is given as under 0.005.
